Article doi:10.1101/2020.02.14.947937 (bioRxiv, 2020)

Target: the molecule itself
Assay: cryo-EM structure

B1: mouse homomeric 5-HT3A receptor (receptor, UniProt P23979 24-489, looked up)
chain: SRRRATQARDTTQPALLRLSDHLLANYKKGVRPVRDWRKPTTVSIDVIMYAILNVDEKNQVLTTYIWYRQYWTDEFLQWTPEDFDNVTKLSIPTDSIWVPDILINEFVDVGKSPNIPYVYVHHRGEVQNYKPLQLVTACSLDIYNFPFDVQNCSLTFTSWLHTIQDINITLWRSPEEVRSDKSIFINQGEWELLEVFPQFKEFSIDISNSYAEMKFYVIIRRRPLFYAVSLLLPSIFLMVVDIVGFCLPPDSGERVSFKITLLLGYSVFLIIVSDTLPATAIGTPLIGVYFVVCMALLVISLAETIFIVRLVHKQDLQRPVPDWLRHLVLDRIAWILCLGEQPMAHRPPATFQANKTDDCSGSDLLPAMGNHCSHVGGPQDLEKTPRGRGSPLPPPREASLAVRGLLQELSSIRHFLEKRDEMREVARDWLRVGYVLDRLLFRIYLLAVLAYSITLVTLWSIWHYS
modifications: N-linked carbohydrates
  stoichiometry N: 5
